Source: article PMC11231238, “SPRING licenses S1P-mediated cleavage of SREBP2 by displacing an inhibitory pro-domain” (Nature Communications, 2024)

Molecular target: T1, FLAG-S1P_(ecto)-His10, matured C-form (human, UniProt Q14703 187-998)
T1 construct: human S1P (MBTPS1); expressed as IgK leader-FLAG-residues 23-998-His10; after autoproteolysis the His10-bearing C-form; The N-terminal FLAG tag leaves with the A-domain; also called WT S1P_(ecto); C-form of S1P_(ecto); source: HEK 293S GnTI- (BacMam baculovirus), secreted, purified (NiNTA, gel filtration); HEK 293T, transfected, secreted, in supernatant; not shown: His10, C-terminal, kept
T1 sequence (looked up): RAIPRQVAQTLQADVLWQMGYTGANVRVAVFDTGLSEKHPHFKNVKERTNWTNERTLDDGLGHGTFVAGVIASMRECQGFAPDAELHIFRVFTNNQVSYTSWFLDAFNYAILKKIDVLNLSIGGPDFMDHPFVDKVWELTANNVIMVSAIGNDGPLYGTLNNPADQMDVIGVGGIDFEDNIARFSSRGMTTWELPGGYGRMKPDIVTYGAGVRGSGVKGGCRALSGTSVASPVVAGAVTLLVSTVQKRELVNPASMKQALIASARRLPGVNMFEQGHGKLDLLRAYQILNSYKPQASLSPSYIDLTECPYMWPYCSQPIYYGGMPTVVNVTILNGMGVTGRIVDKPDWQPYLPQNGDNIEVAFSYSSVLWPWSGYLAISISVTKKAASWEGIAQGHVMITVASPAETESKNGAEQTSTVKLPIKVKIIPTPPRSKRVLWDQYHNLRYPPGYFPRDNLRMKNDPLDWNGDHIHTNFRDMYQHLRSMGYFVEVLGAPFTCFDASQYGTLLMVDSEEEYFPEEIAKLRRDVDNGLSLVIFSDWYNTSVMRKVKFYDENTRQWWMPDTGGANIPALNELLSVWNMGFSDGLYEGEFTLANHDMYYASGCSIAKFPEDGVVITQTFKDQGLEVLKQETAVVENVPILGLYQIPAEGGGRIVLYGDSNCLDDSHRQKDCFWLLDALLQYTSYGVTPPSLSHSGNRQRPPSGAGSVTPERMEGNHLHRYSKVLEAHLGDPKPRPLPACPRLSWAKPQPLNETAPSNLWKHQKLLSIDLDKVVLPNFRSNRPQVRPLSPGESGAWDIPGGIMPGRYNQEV
Test: pull-down; HEK 293T supernatants of co-transfected cells with 50 mM imidazole; NiNTA resin holds the His10 tag of S1P_(ecto), 1-2 h at 4 °C; washes in 150 mM NaCl, 50 mM HEPES-NaOH pH 7.5, 50 mM imidazole; elution with 300 mM imidazole; immunoblot anti-HA, anti-His, anti-FLAG
Settings: partners not purified

B1: cleaved A-domain of FLAG-S1P_(ecto)-His10 (domain or fragment, human, UniProt Q14703 23-137, looked up)
chain: DRLEKKSFEKAPCPGCSHLTLKVEFSSTVVEYEYIVAFNGYFTAKARNSFISSALKSSEVDNWRIIPRNNPSSDYPSDFEVIQIKEKQKAGLLTLEDHPNIKRVTPQRKVFRSLK
notes: human S1P (MBTPS1) A pro-domain, released by autoproteolysis from the construct FLAG-residues 23-998-His10; the construct begins at residue 23; in the cryo-EM map the density ends after K137 (cleavage at the B site); cleavage at the alternative B' site is possible too; also called A pro-domain; S1P A-domain; source: HEK 293S GnTI- (BacMam baculovirus), secreted, co-purified with S1P_(ecto) …
B1: binds.
